Like-named read-outs stand apart in the source and are kept apart here. Ends that are not written are not given here.
B1: . . . KNIVTPRTPPPS . . . (protein, listed as Bos taurus)
chain: AAQKRPSQRSKYLASASTMDHARHGFLPRHRDTGILDSLGRFFGSDRGAPKRGSGKDGHHAARTTHYGSLPQKAQGHRPQDENPVVHFFKNIVTPRTPPPSQGKGRGLSLSRFSWGAEGQKPGFGYGGRASDYKSAHKGLKGHDAQGTLSKIFKLGGRDSRSGSPMARR

Tests used:
ERK2 [1] = target: T1, ERK2 (Rattus norvegicus, UniProt P63086); assay: Phosphorylation of TH Ser31-containing peptides by purified, recombinant, activated ERK2; type: biochemical; settings: for RELATIVE 32P INCORPORATION (% 3.3 μmol/min/mg): substrate 1 mM, median of three determinations; for RELATIVE 32P INCORPORATION (% 3.0 μmol/min/mg) Mean: mean of four determinations
T1 sequence (P63086 2-358 limits assumed): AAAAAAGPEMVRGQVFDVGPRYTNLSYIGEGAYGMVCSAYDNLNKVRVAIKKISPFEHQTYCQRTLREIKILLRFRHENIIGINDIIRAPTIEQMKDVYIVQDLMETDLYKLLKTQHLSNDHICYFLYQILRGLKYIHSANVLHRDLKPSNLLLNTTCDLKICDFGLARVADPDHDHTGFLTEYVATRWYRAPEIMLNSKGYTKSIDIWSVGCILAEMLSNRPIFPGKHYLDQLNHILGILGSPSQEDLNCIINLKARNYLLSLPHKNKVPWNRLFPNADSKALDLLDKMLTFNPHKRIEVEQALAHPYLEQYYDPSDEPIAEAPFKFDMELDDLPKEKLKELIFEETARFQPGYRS
Description: Materials: Purified peptides were obtained from Sigma (St. Louis, Mo.) or custom synthesized by Louisiana State University Health Science Center Core Laboratories (New Orleans La.). Purified, activated ERK1 was a gift from Dr. M. H. Cobb (University of Texas Southwestern Medical Center, Dallas, Tex.). Purified, recombinant, activated ERK2 was a gift from Dr. N. G. Ahn (University of Colorado, Boulder, Colo.). Except as indicated below, other materials were purchased from Sigma. The new synthetic peptides modeled after […] in human tyrosine hydroxylase are indicated. ERK activity assays: Aliquots of supernatants or ERK1/2 immunoprecipitates (suspended in lysis solution) were mixed with substrate (1 mM final, unless stated otherwise) at 4° C. Phosphorylation reactions were initiated by addition of an equal volume of assay buffer containing [γ-^32P]ATP (NEN Life Sciences Products, now PerkinElmer Life Sciences, Boston, Mass.) and Mg^++ and allowed to proceed for 10 min at 30° C., after which duplicate 20 μl aliquots were spotted onto Whatman P81 paper. As would be predicted by the presence of multiple basic residues in the peptides, the ability of P81 paper to bind >90% of each of the peptides used in Tables 2 and 3 was confirmed by UV detection following RP-HPLC. The final reaction mixtures (50 μl) contained 50 mM β-glycerophosphate, 10 mM MgCl2, 1 mM EGTA, 1 mM dithiothreitol, 1 mM benzamidine, 0.1 mM ATP, 0.1 mM Na3VO4, 10 μM calmidazolium, 2 μM peptide inhibitor of cyclic AMP-dependent protein kinase ([…] ID NO: 24), 10 μg/ml leupeptin, and 0.025% Tween 20. Table 3 indicates the relative phosphorylation of TH-[…]-containing peptides by purified ERK2. […] These new substrates were assayed for the relative phosphorylation by purified ERK2 similar to the experiments that generated Table 3.

ERK1 = ERK1 (Rattus norvegicus, UniProt P21708); assay: Phosphorylation of substrates by purified, activated ERK1 (32P incorporation, P81 paper); type: biochemical; settings: for RELATIVE 32P INCORPORATION (% OF MBP): peptides 1 mM, MBP 20 μM, 10 min at 30° C., median of three determinations
ERK1, sequence (P21708 2-380 limits assumed): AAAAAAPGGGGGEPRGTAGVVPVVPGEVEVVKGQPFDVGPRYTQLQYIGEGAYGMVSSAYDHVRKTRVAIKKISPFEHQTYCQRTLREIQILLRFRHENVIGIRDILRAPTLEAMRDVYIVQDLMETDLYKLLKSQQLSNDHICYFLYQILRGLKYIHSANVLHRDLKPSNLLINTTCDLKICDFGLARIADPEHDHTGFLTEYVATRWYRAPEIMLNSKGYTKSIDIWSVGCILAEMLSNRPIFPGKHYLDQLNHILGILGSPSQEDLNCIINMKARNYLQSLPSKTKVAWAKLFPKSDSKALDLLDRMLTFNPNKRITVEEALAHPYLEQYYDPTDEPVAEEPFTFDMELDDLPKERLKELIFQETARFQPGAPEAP
Description: Materials: Purified peptides were obtained from Sigma (St. Louis, Mo.) or custom synthesized by Louisiana State University Health Science Center Core Laboratories (New Orleans La.). Purified, activated ERK1 was a gift from Dr. M. H. Cobb (University of Texas Southwestern Medical Center, Dallas, Tex.). Purified, recombinant, activated ERK2 was a gift from Dr. N. G. Ahn (University of Colorado, Boulder, Colo.). Except as indicated below, other materials were purchased from Sigma. The new synthetic peptides modeled after Ser31 in human tyrosine hydroxylase are indicated.
(§1) ERK activity assays: Aliquots of supernatants or ERK1/2 immunoprecipitates (suspended in lysis solution) were mixed with substrate (1 mM final, unless stated otherwise) at 4° C. Phosphorylation reactions were initiated by addition of an equal volume of assay buffer containing [γ-^32P]ATP (NEN Life Sciences Products, now PerkinElmer Life Sciences, Boston, Mass.) and Mg^++ and allowed to proceed for 10 min at 30° C., after which duplicate 20 μl aliquots were spotted onto Whatman P81 paper. As would be predicted by the presence of multiple basic residues in the peptides, the ability of P81 paper to bind >90% of each of the peptides used in Tables 2 and 3 was confirmed by UV detection following RP-HPLC. The final reaction mixtures (50 μl) contained 50 mM β-glycerophosphate, 10 mM MgCl2, 1 mM EGTA, 1 mM dithiothreitol, 1 mM benzamidine, 0.1 mM ATP, 0.1 mM Na3VO4, 10 μM calmidazolium, 2 μM peptide inhibitor of cyclic AMP-dependent protein kinase ([…], SEQ ID NO: 24), 10 μg/ml leupeptin, and 0.025% Tween 20.
To test the effectiveness of various peptide substrates, peptide substrates were compared with myelin basic protein (“MBP,” SEQ ED NO: 1) for relative ability to be phosphorylated by purified ERK1 or ERK2. The ERK activity assay was as described above in Example 1. In Table 2, each value represents the median of three independent determinations, performed in duplicate. While all peptides were assayed at a concentration of 1 mM, MBP phosphorylation—given as a frame of reference at a concentration typically used in such assays—was assayed at 20 μM. ^32P incorporation into MBPtide (SEQ ID NO: 2) was 330 nmol/min/mg under the assay conditions used.

ERK2 [2] = target: T1, ERK2; assay: Steady-state kinetic analyses of peptide substrates for ERK2; type: biochemical; settings: for Kmin(app) / Vmax(app) Relative: median of three determinations; for Vmax(app) Relative: relative values
Experimental: as §1
In Table 5, each value represents the median of three independent determinations, performed in duplicate. […] See I. Kameshita et al., 1997. […] 355, pp. 5641-5646 (1996); see also C. N. Prowse et al., “Catalytic reaction pathway for the mitogen-activated protein kinase ERK2,” Biochem., vol. 39, pp. 6258-6266 (2000).

ERK1/2 = assay: In vitro kinase assay on PC12 cellular extracts with no further purification (with and without nerve growth factor); type: biochemical, rat; settings: for pattern and degree of ERK activation over time compared with ERK immunoprecipitation and blot immunolabeling assays: PC12 cells with and without NGF, up to 480 min, extracts without purification; for levels of protein kinase activity in cellular extracts: PC12 extracts, no kinase purification, EGTA, calmidazolium, cAMP-dependent protein kinase inhibitor present
Experimental: Cells were treated with or without added 100 ng/ml 7S nerve growth factor for up to 8 h. One group of cells was harvested for blot immunolabeling and solubilized with sodium dodecyl sulfate solution, as described in J. W. Haycock, “Multiple forms of tyrosine hydroxylase in human neuroblastoma cells: Quantitation with isoform-specific antibodies,” J. Neurochem., vol. […] A second group of cells was harvested for kinase assays and subjected to trituration in an ice-cold lysis solution of 50 mM β-glycerophosphate, 1 mM EGTA, 1 mM dithiothreitol, 1 mM benzamidine (Eastman Kodak Co., Rochester, N.Y.), 0.1 mM Na3VO4, 10 μg/ml leupeptin, and 0.05% Tween 20. Supernatants from the latter samples were generated by sonication and centrifugation (20 min at 10,000×g) in a refrigerated centrifuge (Savant, Farmingdale, N.J.). In some experiments, ERK1/2 was isolated prior to assaying kinase activity by immunoprecipitation of the PC12 cellular extracts with anti-pan ERK1/2 and protein A-Sepharose. […] ERK activity assays: Aliquots of supernatants or ERK1/2 immunoprecipitates (suspended in lysis solution) were mixed with substrate (1 mM final, unless stated otherwise) at 4° C. Phosphorylation reactions were initiated by addition of an equal volume of assay buffer containing [γ-^32P]ATP (NEN Life Sciences Products, now PerkinElmer Life Sciences, Boston, Mass.) and Mg^++ and allowed to proceed for 10 min at 30° C., after which duplicate 20 μl aliquots were spotted onto Whatman P81 paper. […] Experiments were conducted to test the ability of different substrates to assay for activation of ERK1/2 in situ. […] Cells were harvested and-assayed for ERK1/2 activity by various methods.

MAP kinase = settings: reported, Kameshita et al., 1997; cited from earlier work
ERK2 [3] = target: T1, ERK2; settings: described previously by Robinson et al., 1996; cited from earlier work
ERK2 [4] = target: T1, ERK2; settings: stated for MBP protein as contrast to the peptides; cited from earlier work

Molecule	RELATIVE 32P INCORPORATION (% 3.3 μmol/min/mg) (ERK2 [1])	RELATIVE 32P INCORPORATION (% OF MBP) (ERK1)	RELATIVE 32P INCORPORATION (% 3.0 μmol/min/mg) Mean (ERK2 [1])	other results
AIMSPRFIGRR (This sequence is based on TH-31 type 1 HUMAN.) [SEQ ID NO: 11]	29 % 3.3 μmol/min/mg			
APRTPGGRR (This sequence is MBPtide (Thr 97).) [SEQ ID NO: 2]		28 % OF MBP		32P incorporation (ERK1; peptide 1 mM, assay conditions of Table 2): 330 nmol/min/mg; Kmin(app) (ERK2 [2]): 2.0 mM; Vmax(app) Relative (ERK2 [2]): 46; pattern and degree of ERK activation over time compared with ERK immunoprecipitation and blot immunolabeling assays (ERK1/2): differed; levels of protein kinase activity in cellular extracts (ERK1/2): Higher levels of protein kinase activity; Km (MAP kinase): 1600 µM
ATGPLSPGPFGRR (ATGPLSPFGRR; This sequence is ERKtide.) [SEQ ID NO: 23]				apparent Vmax (ERK2 [2]): 9.4 µmol/min/mg; Kmin(app) (ERK2 [2]): 0.6 mM; Vmax(app) Relative (ERK2 [2]): 82; pattern and degree of ERK activation over time compared with ERK immunoprecipitation and blot immunolabeling assays (ERK1/2): faithfully reproduced; Km (ERK2 [3]): 450 µM
AVTSPRFIGRR (This sequence is based on TH-Ser31 (rat).) [SEQ ID NO: 8]	9 % 3.3 μmol/min/mg			
EAIMSPRFIGRR (This sequence is based on TH-31 type 1 HUMAN.) [SEQ ID NO: 12]	41 % 3.3 μmol/min/mg			
EAIMSPRFK (This sequence is based on TH-31 type 1 HUMAN.) [SEQ ID NO: 10]	21 % 3.3 μmol/min/mg			Kmin(app) (ERK2 [2]): 1.4 mM; Vmax(app) Relative (ERK2 [2]): 42
EAIMVRGQSPRFK (This sequence is based on TH-Ser31 type 2 HUMAN.) [SEQ ID NO: 22]	2 % 3.3 μmol/min/mg			
EAVTSPRFIGRR (This sequence is based on TH-Ser31 (rat).) [SEQ ID NO: 9]	20 % 3.3 μmol/min/mg			
GRRQSLIEDAR (This sequence is TH (rat) Ser40.) [SEQ ID NO: 6]		<1 % OF MBP		
IMVRGQSPR (This sequence is based on TH-Ser31 type 2 HUMAN.) [SEQ ID NO: 20]	1 % 3.3 μmol/min/mg			
KQAEAVTSPR (This sequence is based on TH-Ser31 (rat).) [SEQ ID NO: 7]	7 % 3.3 μmol/min/mg	5 % OF MBP		Kmin(app) (ERK2 [2]): 1.8 mM; Vmax(app) Relative (ERK2 [2]): 9
PTPSAPSPQPK (This sequence is TH (rat) Ser8.) [SEQ ID NO: 4]		<1 % OF MBP		
QAEAIMSPRFGRR-NH2 [SEQ ID NO: 15]			107 % 3.0 μmol/min/mg	
QATGPLSPGFRR-NH2 [SEQ ID NO: 19]			182 % 3.0 μmol/min/mg	
QATGPLSPGPFRR-NH2 [SEQ ID NO: 17]			143 % 3.0 μmol/min/mg	
RRAVSEQDAK (This sequence is TH (rat) Ser19.) [SEQ ID NO: 5]		<1 % OF MBP		
RRELVEPLTPSGEA (This sequence is EGF Receptor (Thr669).) [SEQ ID NO: 3]		13 % OF MBP		
YIMVRGQSPR (This sequence is based on TH-Ser31 type 2 HUMAN.) [SEQ ID NO: 21]	1 % 3.3 μmol/min/mg			
YQAEAIMSPRFIGRR-NH2 [SEQ ID NO: 14]	100 % 3.3 μmol/min/mg		117 % 3.0 μmol/min/mg	
YQAEAIMSPRFIGRRQ (This sequence is new and based on TH-31 type 1 HUMAN.) [SEQ ID NO: 13]	80 % 3.3 μmol/min/mg		100 % 3.0 μmol/min/mg	Kmin(app) (ERK2 [2]): 1.0 mM; pattern and degree of ERK activation over time compared with ERK immunoprecipitation and blot immunolabeling assays (ERK1/2): faithfully reproduced
YQATGPLSPGFRR-NH2 [SEQ ID NO: 18]			215 % 3.0 μmol/min/mg	
YQATGPLSPGPFRR-NH2 [SEQ ID NO: 16]			164 % 3.0 μmol/min/mg	
B1		100 % OF MBP		pattern and degree of ERK activation over time compared with ERK immunoprecipitation and blot immunolabeling assays (ERK1/2): differed; levels of protein kinase activity in cellular extracts (ERK1/2): Higher levels of protein kinase activity; Km (ERK2 [4]): 10 to 50 µM

Source: US7037670B2, “Peptide substrates for assay of extracellular signal-regulated protein kinase 1 and 2 activity” (Board of Supervisors of Louisiana State University and …, priority 2002, dated 2006)
